Test results from publication PMC6054930 (Frontiers in Immunology, 2018).

Molecular target: T1, hPD-L1-Fc (human, UniProt Q9NZQ7 19-238)
T1 construct: human programmed death-ligand 1 (PD-L1, CD274, B7-H1); also called programmed death-ligand 1; CD274; source: bought: tebu-bio/BPS Bioscience, #71104
Test: ELISA; competitive: hPD-L1-Fc coated on the plate; test antibodies in presence of 1 µg/ml PD-1-Biotin or 0.5 µg/ml CD80-Biotin; detected with streptavidin-POD
Conditions: both partners purified

T1 sequence (Q9NZQ7 19-238): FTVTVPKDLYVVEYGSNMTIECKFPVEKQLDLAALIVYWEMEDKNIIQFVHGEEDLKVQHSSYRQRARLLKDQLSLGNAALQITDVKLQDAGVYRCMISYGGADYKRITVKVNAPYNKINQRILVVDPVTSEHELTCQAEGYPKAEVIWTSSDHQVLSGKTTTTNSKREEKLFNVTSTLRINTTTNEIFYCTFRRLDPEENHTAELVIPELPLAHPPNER

B1: CD80-Biotin (ligand, human, UniProt P33681 35-242, looked up)
chain: VIHVTKEVKEVATLSCGHNVSVEELAQTRIYWQKEKKMVLTMMSGDMNIWPEYKNRTIFDITNNLSIVILALRPSDEGTYECVVLKYEKDAFKREHLAEVTLSVKADFPTPSISDFEIPTSNIRRIICSTSGGFPEPHLSWLENGEELNAINTTVSQDPETELYAVSSKLDFNMTTNHSFMCLIKYGHLRVNQTFNWNTTKQEHFPDN
modifications: biotin
notes: The vendor's product may carry an Fc part; also called B7-1; soluble CD80; source: bought: tebu-bio/BPS Bioscience, #71114
binding result: binds
